The target of this experiment is mTOR^ΔN-mLST8 complex (human) (UniProt P42345).

The results in this text go back to article PMC5750076.

As for “S6K1^367–404 wild type (from UniProt P23443-2 367-404) (peptide)”, the KM of S6K1^367–404 phosphorylation by mTOR^ΔN-mLST8 worked out at 430 µM.
